According to US20160185837A1 (Medimmune Limited, priority 2013, published 2016):
pEC50: −log10 of the molar value. Read-outs that look alike come from different tables or passages of the source. Ends that are not written are not given here.

Key:
Type in all cases: cell-based
[1] = molecular target: T1, human glucagon receptor (GCGr) (Homo sapiens, UniProt P47871); assay: BSA-cAMP assay, cells expressing human glucagon receptor
T1 construct: expressed in transfected cells; host or cells: HEK293s or CHO cells
Procedure: (§1) One basic cAMP assays was performed, differing in the medium used for the assay, the “BSA-cAMP assay”:
(§2) BSA-based assay medium: 0.1% bovine serum albumin (BSA) in
(§3) In certain aspects, the assay can also be carried out in medium supplemented with serum albumin that corresponds to the receptor being tested, e.g., human serum albumin for testing cAMP activity at hGIPr or hGLP-1r, rat serum albumin for testing cAMP activity at rGIPr or rGLP-1r, and so on. […] All sample dilutions were made in duplicate.
(§4) A frozen cryo-vial of cells expressing the receptor of interest was thawed rapidly in a water-bath, transferred to pre-warmed assay media and spun at 240×g for 5 minutes. Cells were re-suspended in assay buffer at an optimized concentration (e.g., hGLP-1r and hGIPr cells at 0.5×10^5 cells/ml).
(§5) To this, 5 μL cell suspension was added and the plates incubated at room temperature for 30 minutes.
(§6) cAMP levels were measured using a commercially available cAMP dynamic 2 HTRF kit (Cisbio, Cat #62AM4PEJ), following the two step protocol as per manufacturer's recommendations. In brief; anti-cAMP cryptate (donor fluorophore) and cAMP-d2 (acceptor fluorophore) were made up separately by diluting each 1/20 in conjugate & lysis buffer provided in the kit. 5 μL anti-cAMP cryptate was added to all wells of the assay plate, and 5 μL cAMP-d2 added to all wells except non-specific binding (NSB) wells, to which conjugate and lysis buffer was added. […] Data was transformed to % Delta F as described in manufacturer's guidelines and then transformed to percent activation of maximal native agonist response and analysed by 4-parameter logistic fit to determine EC50 values.
(§7) We used unconstrained 4 parameter logistic fit of data, curve mid-point to determine EC50. This was tested on two occasions, not two batches.

[2] = molecular target: T2, mouse GLP-1 receptor (mGLP-1r) (Mus musculus, UniProt O35659); assay: BSA-cAMP assay, cells expressing mouse GLP-1 receptor; details: Batch 1; BSA-cAMP assay; read-out: mGLP1r cAMP activity EC50
T2 construct: expressed in transfected cells; host or cells: HEK293s or CHO cells
T2 sequence (O35659 22-463): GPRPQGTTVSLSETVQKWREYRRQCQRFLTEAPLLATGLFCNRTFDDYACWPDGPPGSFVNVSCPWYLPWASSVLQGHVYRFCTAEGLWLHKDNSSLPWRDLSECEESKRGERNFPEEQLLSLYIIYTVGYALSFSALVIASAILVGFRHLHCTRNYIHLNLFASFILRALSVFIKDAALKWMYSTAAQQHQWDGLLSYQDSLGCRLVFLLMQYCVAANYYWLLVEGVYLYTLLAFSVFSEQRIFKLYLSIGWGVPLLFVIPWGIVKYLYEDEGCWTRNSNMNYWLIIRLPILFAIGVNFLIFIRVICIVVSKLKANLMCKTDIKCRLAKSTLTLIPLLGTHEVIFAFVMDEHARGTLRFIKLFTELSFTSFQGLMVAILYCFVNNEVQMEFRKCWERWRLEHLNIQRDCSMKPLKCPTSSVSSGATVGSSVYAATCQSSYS
Procedure: as §1, §2, §3, §4, §5, §6, §7
(§8) In order to be able to carry out in vivo studies in rodents, IP088 was tested for potency against the mouse receptors mGIPr and mGLP-1r as well as the rat receptors rGIPr and rGLP-1r, using cells expressing the respective receptors in the cAMP assay described above.

[3] = molecular target: T3, rat GLP-1 receptor (rGLP-1r) (Rattus norvegicus, UniProt P32301); assay: BSA-cAMP assay, cells expressing rat GLP-1 receptor; details: Batch 1; BSA-cAMP assay; read-out: rGLP1r cAMP activity EC50
T3 construct: expressed in transfected cells; host or cells: HEK293s or CHO cells
T3 sequence (P32301 22-463): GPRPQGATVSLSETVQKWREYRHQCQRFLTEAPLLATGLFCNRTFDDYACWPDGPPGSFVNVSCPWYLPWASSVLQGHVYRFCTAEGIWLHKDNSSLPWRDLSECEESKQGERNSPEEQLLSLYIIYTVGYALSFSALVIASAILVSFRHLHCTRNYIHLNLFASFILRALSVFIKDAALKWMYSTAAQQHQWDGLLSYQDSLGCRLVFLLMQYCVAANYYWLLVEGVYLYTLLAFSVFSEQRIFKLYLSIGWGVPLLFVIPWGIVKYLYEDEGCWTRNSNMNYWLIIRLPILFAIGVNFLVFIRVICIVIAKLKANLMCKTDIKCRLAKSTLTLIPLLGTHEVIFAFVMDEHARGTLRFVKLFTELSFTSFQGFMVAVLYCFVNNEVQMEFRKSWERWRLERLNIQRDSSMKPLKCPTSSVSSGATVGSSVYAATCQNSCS
Procedure: as §1, §2, §3, §4, §5, §6, §7, §8

[4] = molecular target: T4, human GIP receptor (hGIPr) (Homo sapiens, UniProt P48546); assay: BSA-cAMP assay, cells expressing human GIP receptor; details: BSA-cAMP assay
T4 construct: expressed in transfected cells
T4 sequence (P48546 22-466): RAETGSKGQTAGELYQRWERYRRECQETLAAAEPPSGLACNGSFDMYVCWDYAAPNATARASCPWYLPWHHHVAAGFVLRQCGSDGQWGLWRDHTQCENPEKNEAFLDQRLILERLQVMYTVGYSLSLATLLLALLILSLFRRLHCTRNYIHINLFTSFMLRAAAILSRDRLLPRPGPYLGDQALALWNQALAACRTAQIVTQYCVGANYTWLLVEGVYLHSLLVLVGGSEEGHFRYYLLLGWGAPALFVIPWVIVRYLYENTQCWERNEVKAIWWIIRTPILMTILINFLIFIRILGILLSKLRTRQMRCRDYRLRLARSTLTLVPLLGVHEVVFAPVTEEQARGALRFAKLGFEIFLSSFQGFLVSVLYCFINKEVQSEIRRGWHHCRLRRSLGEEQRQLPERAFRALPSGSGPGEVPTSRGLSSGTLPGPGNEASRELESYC
Procedure: For human GIPr, two different lines were used, shown as “hGIPr” and “hGIPr (C3)” in Table 11.
as §1, §2, §3, §4, §5, §6, §7

[5] = molecular target: T5, mouse GIP receptor (mGIPr) (Mus musculus, UniProt Q0P543); assay: BSA-cAMP assay, cells expressing mouse GIP receptor; details: Batch 1; BSA-cAMP assay; read-out: mGIPr cAMP activity EC50
T5 construct: expressed in transfected cells; host or cells: HEK293s or CHO cells
T5 sequence (Q0P543 19-460): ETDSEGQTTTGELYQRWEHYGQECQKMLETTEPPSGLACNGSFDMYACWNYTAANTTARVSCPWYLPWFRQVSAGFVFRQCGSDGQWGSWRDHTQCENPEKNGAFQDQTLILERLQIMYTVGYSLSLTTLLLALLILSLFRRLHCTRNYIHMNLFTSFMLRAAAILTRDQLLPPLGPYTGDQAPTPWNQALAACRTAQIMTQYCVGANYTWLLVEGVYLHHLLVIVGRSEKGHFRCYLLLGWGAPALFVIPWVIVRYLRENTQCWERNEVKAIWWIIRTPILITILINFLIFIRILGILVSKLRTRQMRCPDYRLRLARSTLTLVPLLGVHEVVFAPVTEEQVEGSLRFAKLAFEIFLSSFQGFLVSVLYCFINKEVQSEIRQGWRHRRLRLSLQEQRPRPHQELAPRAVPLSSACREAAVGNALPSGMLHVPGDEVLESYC
Procedure: as §1, §2, §3, §4, §5, §6, §7, §8

[6] = molecular target: T6, human GLP-1 receptor (hGLP-1r) (Homo sapiens, UniProt P43220); assay: BSA-cAMP assay, cells expressing human GLP-1 receptor; details: BSA-cAMP assay
T6 construct: expressed in transfected cells
Procedure: as §1, §2, §3, §4, §5, §6, §7

[7] = molecular target: T7, rat GIP receptor (rGIPr) (Rattus norvegicus, UniProt P43219); assay: BSA-cAMP assay, cells expressing rat GIP receptor; details: Batch 1; BSA-cAMP assay; read-out: rGIPr cAMP activity EC50
T7 construct: expressed in transfected cells; host or cells: HEK293s or CHO cells
T7 sequence (P43219 19-455): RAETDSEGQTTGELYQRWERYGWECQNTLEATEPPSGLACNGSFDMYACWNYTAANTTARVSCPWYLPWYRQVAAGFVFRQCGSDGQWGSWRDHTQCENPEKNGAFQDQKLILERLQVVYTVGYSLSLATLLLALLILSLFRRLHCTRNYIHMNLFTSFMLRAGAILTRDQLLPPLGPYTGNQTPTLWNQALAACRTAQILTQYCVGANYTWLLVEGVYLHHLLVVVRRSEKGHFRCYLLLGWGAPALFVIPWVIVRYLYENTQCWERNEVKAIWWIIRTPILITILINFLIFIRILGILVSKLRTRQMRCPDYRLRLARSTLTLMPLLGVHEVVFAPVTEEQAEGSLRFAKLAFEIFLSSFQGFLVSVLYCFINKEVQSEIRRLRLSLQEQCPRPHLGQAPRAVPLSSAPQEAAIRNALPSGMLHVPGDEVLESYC
Procedure: as §1, §2, §3, §4, §5, §6, §7, §8

[8] = Batch 1, read-out: hGCGr cAMP activity EC50
[9] = Batch 1, read-out: hGIPr cAMP activity EC50
[10] = Batch 1, read-out: hGLP1r cAMP activity EC50
[11] = batch 1 unless a batch is given, read-out: cAMP activity hGIPr (EC50)
[12] = batch 1 unless a batch is given, read-out: cAMP activity hGLP1r (EC50)

T6 sequence (P43220 24-463): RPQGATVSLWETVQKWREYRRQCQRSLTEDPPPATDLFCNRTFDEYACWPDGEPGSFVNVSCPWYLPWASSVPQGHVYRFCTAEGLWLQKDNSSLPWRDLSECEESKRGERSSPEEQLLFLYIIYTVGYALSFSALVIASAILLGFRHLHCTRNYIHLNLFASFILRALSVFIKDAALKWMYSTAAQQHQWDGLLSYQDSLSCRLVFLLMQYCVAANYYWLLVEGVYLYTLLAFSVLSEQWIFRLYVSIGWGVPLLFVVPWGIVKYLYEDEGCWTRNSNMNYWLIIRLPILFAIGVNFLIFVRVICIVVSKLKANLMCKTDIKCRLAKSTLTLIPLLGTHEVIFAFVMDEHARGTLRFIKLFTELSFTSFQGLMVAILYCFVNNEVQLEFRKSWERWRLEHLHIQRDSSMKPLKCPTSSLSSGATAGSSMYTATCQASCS
T1 sequence (P47871 26-477): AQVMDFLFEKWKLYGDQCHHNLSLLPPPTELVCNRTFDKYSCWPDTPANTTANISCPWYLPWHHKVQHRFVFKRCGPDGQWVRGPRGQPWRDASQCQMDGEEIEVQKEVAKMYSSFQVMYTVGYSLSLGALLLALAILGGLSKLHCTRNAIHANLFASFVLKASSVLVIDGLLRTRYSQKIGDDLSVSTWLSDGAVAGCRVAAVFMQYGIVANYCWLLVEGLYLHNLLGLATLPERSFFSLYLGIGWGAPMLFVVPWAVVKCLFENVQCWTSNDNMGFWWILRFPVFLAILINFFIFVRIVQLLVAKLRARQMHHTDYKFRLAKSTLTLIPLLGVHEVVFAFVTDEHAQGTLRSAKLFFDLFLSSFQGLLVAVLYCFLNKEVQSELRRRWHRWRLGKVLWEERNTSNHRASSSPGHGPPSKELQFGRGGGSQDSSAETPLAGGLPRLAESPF

Row | Substance | pEC50 [1, 8] | pEC50 [5] | pEC50 [6, 10] | pEC50 [6, 12] | other results
1 | IP343 (YSEGTFTSDYAAAAERQAIDAFAAWLAAAAGGGGGSGGGGSGGGGSGGGGSA) | < 5.68 | 6.06 | 6.02 |  | pEC50 [2]: < 5.68; pEC50 [3]: 6.44; pEC50 [4, 9]: 7.14; pEC50 [7]: 6.96
2 | IP238 (HGEGTFTSDVSSYLEGQAAKEFIAWLVKGGGGGGSGGGGSGGGGSAESKYGPPCPPC; also: forms dimer via hinge disulfides) |  |  |  | 10.24 | pEC50 [4, 11]: 6.51
3 | IP299: Fc fusion, IgG1-TM(ΔK), SEQ ID NO:351; agonist peptide YSEGTFISDYSKLLEEEAVRDFVEWLKAGG (YSEGTFISDYSKLLEEEAVRDFVEWLKAGGGGGGGSGGGGSGGGGSGGGGSATHTCPPC) | 7.28 | 6.68 | < 5.44 |  | pEC50 [2]: < 5.44; pEC50 [3]: 7.72; pEC50 [4, 9]: 10.68; pEC50 [7]: 9.96
4 | IP319 (YSEGTFTSDYSKLLEAAAAAAFAAWLAAAAGGGGGSGGGGSGGGGSGGGGSACPPC) |  |  |  |  | pEC50 ([1]; Batch 2, read-out: hGCGr cAMP activity EC50): < 6.35; pEC50 ([6]; Batch 2, read-out: hGLP1r cAMP activity EC50): 6.77
5 | IP196 (HGEGTFTSDVSSYLEGQAAKEFIAWLVKGAAAGGSGSTASSGSGSATGGGGAPEF; /note=“Description of Artificial Sequence Synthetic Peptide-linker-hinge polypeptide”) |  |  |  | 10.14 | 
6 | IP231 (HGEGTFTSDVSSYLEEQAAKEFIAWLVKGGGGGGSGGGGSGGGGSGGGGSATHTCPPC; also: forms dimer via hinge disulfides) |  |  |  | 10.17 | 
7 | IP420: Fc fusion, IgG1-TM, SEQ ID NO:391; agonist peptide YSEGTFTSDYSKLLEEEATRLFIEWLLAGG (YSEGTFTSDYSKLLEEEATRLFIEWLLAGGGGGGSGGGGSGGGGSGGGGSATHTCPPC) | 7.68 | 8.59 | 10.09 |  | 
8 | IP193 (HGEGTFTSDVSSYLEGQAAKEFIAWLVKGAAAGGSGSTASSGSGSATGGGGCPPCPAPEF; also: forms dimer via hinge disulfides) |  |  |  | 10.19 | pEC50 ([1]; batch 1 unless a batch is given, read-out: cAMP activity hGCGr (EC50)): 6.11; pEC50 [4, 11]: 6.35
